assay: yeast display, Sf9 membrane polyspecificity reagent, FACS + sequencing; frameworks hold sequencing errors
In short: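 Sorting gates, low and high (top ~1%), were placed on anti-HA fluorescence to track expression and on streptavidin fluorescence to track reagent binding. A clone's polyreactivity label is taken from the gate it came out of. The reagent was 10% biotinylated, detergent-solubilized Sf9 membrane, applied for 1 hour at 4 °C to galactose-induced yeast display cells.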

Sequence	polyreactivity (PSR sort gate)
QVQLVESGGGLVQAGGSLRLSCAASGYSFYYNAMGWYRQAPGKERELVAAISYTGGSTYYADSVKGRFTISRDNAKNTVYLQMNSLKPEDTAVYYCAAEYYTYVSDNYQHYGYWGQGTQVTVSS	low polyreactivity
QVQLVESGGGLDQAGGSLRLSCAASGIIFYVNDMGWYRQAPGKERELVADISGGTSTNYADSVKGRFTISRDNAKNTVYLQMNSLKPEDTAVYYCATAFIVPFPGSDYCGQGTQVTVSS	low polyreactivity
QVQLVESGGGLVQAGGSLRLSCAASGRIFKRNAMGWYRQAPGKERELVATISGSGGSTYYADSVKGRFTISRDNAKNTVYIQMNRLQPEDTAVYYCSATGFFARLSTIYYYWGQGTQVTVTS	high polyreactivity
QVQLVESGGGLVQAGGSLRLSCAASGLILAPNAMGWYRQAPGKERELVAAITFRGVRTYYADSVKGRFTISRDNEKNTVYLQMNSLKPEDTAVYYCAAAVSKHYPYNYWGQGTQVSVSS	high polyreactivity
QVQLVESGGGLVQAGGSLRLSCAASGRILAYYAMGWYRQAPGKERELVAAITSGGRTYYADSVKGRFTISRDNAKNTVYLQMNSLKPEDTAVYYCNAVYGYWYGSWGQGTQVTVSS	high polyreactivity
KDQLVESGGGLVQAGGSLRLSSAASGIRFYVHSMGWYRQAPGKERELDASITSSGGSTYYADSVKGRFTISRDKATNSVYLQMNSLKPEDTAVYYCNKERWPVTYREYDYWGQGTQVTVSS	low polyreactivity
QVQLVESGGRLVQAGGRLRLSCAASGRTFPIYVMGWYRQAQGKERELVATIDSDGTTNYADSVKGRFTISRDNAKNTVSLQMNSLKPEDTAVYYCAADSGWWEYCEDYWGQGTQVTVSS	low polyreactivity
QVQLVESGGGLVQAGGSLRLSCAASGRTFKKYAMGWYRQAPGKERELVAAIRRSGGSTYYADSVKGRFTISRDNAKNTVYLQMNSLKPEDTAVYYCAADFRVGRYDYWGQGTQVTVSS	high polyreactivity
QVQLVESGGGLVQAGGSLRLSCAASVFTFTVNTMGWYRQAPGKERELVAANSNTGSTKYADSVKGRFTISRDKAKNTLYLQMNSLKPEDTAVFYCAAEPGYYSRPDYRVYRVYYWGQGTQVTVSS	high polyreactivity
QVQLVESGGGLVQAGGSLRLSCAASGRIFRPYAMGWYRQAPGKERELVAGITSSGGSTYYADSVKGRYTISRDNAKNTVYLQMNSLKPEDTAVYYCAAVHGLFRPLHYYWGQGTQVTVSS	low polyreactivity
QVQLVESRGGLVQAGGSLRLSCAASGRIFAWNAMGWSRQAPGKERELVAVITSGGNTNYADSVTGRFTISRDNAKNTVYLQLNSLKPEDTAVYYCPKIGYAKRTRFWSHYDYWGQGTQVTVSS	high polyreactivity
QVQLVESGGGLVQAGGSLRLRCAASGSTFPYNAMGWYRQAPGKERELVAAITSAVGTNYADSVKGRVTISRDNAKNTVYLQMNSLKREDTAVYYCAARYIETPLTVLSLMDYWGQGTQVTVSS	low polyreactivity
QVQLVESGGGLVQAGGSLRLSCAASGFTFTTNAMGWYRQAPGKERELVAAISKRGTRTYYADSVKGRFTISRDNAKNTVYLQMNSLKPEDTAVYYCAAASVAGDKFDYWGQGTQVTVSS	high polyreactivity
QVQLVESGGGLVQAGGSLRLSCAASGSIFIYYAMGWYRQAPGKERELVAAINIGGSTYYADSVKGRFTISRDNAKNTVYFQMNSLKPEDTAVYYCNAATWYRVYPYYIIFDYWGQGTQVTVSS	low polyreactivity
QVQLVESGGGLVQAGGSLRLICAASGSIFKYYAMGLYRQAPGKERDLVAANRWSGGSTYYADSVKGRFTISRDNAKNTVYLQMNRLKPEDTAVYYCAAEYFNQNTRQGYDYWGQGTQVTVSS	low polyreactivity
QVQLVESGRGLVQAGGSLRLSCAASAVSFISYAMGWYRQAPGKERELVAAISRGGSSTYYADSVKGRFTISRDNAKNTVYLQMNSLKPEDTAVYYCNKAYHRRDSEFGYSGQGTQVTVSS	high polyreactivity

Sequence	polyreactivity (PSR sort gate)
QVQLVESGGGLVQAGGSLRLSCAASGSIFTFYAMGWYRQAPGKERELVAAISWSGGSTYYADSVKGRFTISRDNAKNTVYLQMNSLKPEDTAVYYCAARYYVYSSRAQYHHYDYWGQGTQVTVSS	high polyreactivity
QVQLVESGGGLVQAGGSLRLSCAASGFIIHRYAMGWYRQAPGKERELVAVITSGGGSTYYADSVKGRFTISRDNAKNTVYLQMNSLKPEDTAVYYCAAYQPYNSRYRYDYWGQGTQVTVSS	high polyreactivity
KVQLVESGGGLVQAGGSLRLSCPASGFTFKSYTMAWSSQAPGKERELVAAISRRDGSTYYADSVKGRFPISRDNAKNTVYFQMNSLKPEDTAVYYCNAYTYGSEFDYWGQGTQVTVST	high polyreactivity
QVQLVESGGGLVQAGGSLRLSCAASGSILAYNAMGWYRKAPGKERELVAAIRLSGGSTYYADSVKGRFTISRDNAKNTVYLQMNSLKPEDTAVYYCARRYYRYDTRKYNYWGQGTQVTVSS	high polyreactivity
QVQLVESGGGLVQAGGSLRLSCAASGSISYFNAMGWYRQAPGKERELVAAITSGGSTYYADSVKGRFTISRDNAKNTVYLQMNSLKPEDTAVYYCNAPLEWGVYAAQNWDDGYWGQGTQVTVSS	low polyreactivity
QVQLVESGGGFVQAGGSLRLSCAASGSTFAYYTMGWYRQAPGKERELVAASYGAGGSTYYADSVKGRFTISRDNAKNTVYLQRNSLIPEDTAVYYCNVVVSVHISVSQYDYWGQGTQVTVSS	high polyreactivity
QVQLVESGGGLVQAGGSLRISCAASGFISYYYAMGWYRQAPGKERELVAAITKSGGSTYYADSVKGRFTISRDNAKNTVYLQMNSLKPDDTAVYYCAADRSTRNSTSRLYGYWGQGTQVTVSS	low polyreactivity
QVQLVESGGGLVQAGGSLRLSCAASGRIFGYNAMGWYIQAPGKERELVAVITYSGGSTYYADSVKGRFTISRDNAKNTVYLQMNSLKPEDTAVYYCNARPIDRYSGSGKQWPDYNYWGQGTQVTVSS	low polyreactivity
QVQLVESGGGLVQAGGSLRLSCAASGSIFLVNAMGWYRQAPGERKELVAAISWSSGSTYYADSVKGRFTNSRDNAKNTVYLQMNSLKPEDTAVYYCAKRSSITYRYDYWGQGTQVTVSS	high polyreactivity
QVQLVESGGGLVQAGGSLRLSCAASGRTFRDYAMGWYRQEPGKESELVAAITWIGGTTYYADSVKGRFTISRDNAKNTVYLQMNSLKPEDTAVYYCAKKRYHWYGRYYYWGQGTQVTVSS	high polyreactivity
QLQLQESGGGLVQAVVDLRQSCAESVNIFRDYIMGCYRQAPGKELEFVAGIDRGANTNFADSEKGRFTISRDNAKNTVYLQMNSLKPEDTAVYYCAVHTAIVPEFIYWGLGTQVTVSS	low polyreactivity
QVHLVESGGGIVQAGGILRLSCAASGNTFYENVMGWYRQTPGKEREFVAAITYIGGNTYYADSVKGRFTISRDNAKNTVYLQMNSLKPEDTAVYYCAAEWDWPTYYTYYWYFSYDYWGQGTQVTVSS	low polyreactivity
QVQLVESGGGLVQAGGSLRLSCAASGRIFKTYAMGWYRPAPGKERELVAAITASGGRTYYADSVKGRFTISRDNAKNTVYLQMNSLKPEDTAVYYCAKRPSYYARNSAYAYLSYGYWGQGTQVTVSS	low polyreactivity
QVQLVESGGGLVQAGGSLRLSCAASGRIFSRYGMGWYRQAPGKERELVAGISSSGGSTYYADSVKGRFTISRDNAKNTVYLQMNSLKPEDTAVYYCAADDGFYGPDLDYRGQGTQVTVSS	low polyreactivity
QVQLVESGGGLVQPGGSLRLSCAASGSTFWLYAMGWYRQAPGQERELVAAISARTGSTYYADSVKGRFTISRDNAKNTVYLQMNSLKPEDTAVYYCNVRYRGTPYGYWGQGTQVTVSS	low polyreactivity

Reference: the nanobody polyreactivity screen of Harvey et al. (2022)
